Data as given in publication PMC9482650, “Quantitative fragmentomics allow affinity mapping of interactomes” (Nature Communications, 2022).

What was measured:
Experiment in all cases: holdup assay
Design in all cases: key: below the threshold = too weak to quantify, mostly under pKd 3.1 to 4
NHERF3_1, Q5T2W1 = target: T1, NHERF3_1, Q5T2W1
T1 sequence (Q5T2W1 4-100, limits assumed, looked up): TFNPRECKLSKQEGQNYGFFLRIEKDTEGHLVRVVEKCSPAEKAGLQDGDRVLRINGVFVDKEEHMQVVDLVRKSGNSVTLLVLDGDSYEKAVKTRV

SHANK1, Q9Y566 = target: T2, SHANK1, Q9Y566
T2 sequence (Q9Y566 658-767, limits assumed, looked up): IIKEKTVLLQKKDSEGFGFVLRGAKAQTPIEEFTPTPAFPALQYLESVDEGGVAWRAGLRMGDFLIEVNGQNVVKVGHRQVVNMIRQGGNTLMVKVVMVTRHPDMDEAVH

GRID2IP_2, A4D2P6 = target: GRID2IP_2, A4D2P6
TJP1_3, Q07157 = target: TJP1_3, Q07157
MPDZ_5, O75970 = target: T3, MPDZ_5, O75970
T3 sequence (O75970 695-796, limits assumed, looked up): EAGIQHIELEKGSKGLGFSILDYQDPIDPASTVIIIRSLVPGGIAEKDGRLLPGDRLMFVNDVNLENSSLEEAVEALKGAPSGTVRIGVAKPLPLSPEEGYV

SNTA1, Q13424 = target: T4, SNTA1, Q13424
T4 sequence (Q13424 82-180, limits assumed, looked up): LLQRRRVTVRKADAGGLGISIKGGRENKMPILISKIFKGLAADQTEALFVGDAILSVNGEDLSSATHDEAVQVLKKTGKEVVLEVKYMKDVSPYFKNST

APBA1_1, Q02410 = target: T5, APBA1_1, Q02410
T5 sequence (Q02410 651-752, limits assumed, looked up): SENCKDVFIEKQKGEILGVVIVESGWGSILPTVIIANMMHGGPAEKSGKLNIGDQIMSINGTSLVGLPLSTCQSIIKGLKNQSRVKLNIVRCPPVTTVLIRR

DLG4_3, P78352 = target: DLG4_3, P78352
DLG4_2, P78352 = target: DLG4_2, P78352
GOPC, Q9HD26 = target: GOPC, Q9HD26
SNX27, Q96L92 = target: SNX27, Q96L92
PARD3B_1, Q8TEW8 = target: T6, PARD3B_1, Q8TEW8
T6 sequence (Q8TEW8 196-299, limits assumed, looked up): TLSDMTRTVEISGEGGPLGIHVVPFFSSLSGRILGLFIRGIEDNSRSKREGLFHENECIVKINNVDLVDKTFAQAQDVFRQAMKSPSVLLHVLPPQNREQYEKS

GRIP2_5, Q9C0E4 = target: GRIP2_5, Q9C0E4
DLG1_2, Q12959 = target: DLG1_2, Q12959
IL16_3, Q14005 = target: IL16_3, Q14005
PICK1, Q9NRD5 = target: PICK1, Q9NRD5
ARHGEF12, Q9NZN5-2 = target: ARHGEF12, Q9NZN5-2
TIAM2, Q8IVF5 = target: T7, TIAM2, Q8IVF5
T7 sequence (Q8IVF5 885-986, limits assumed, looked up): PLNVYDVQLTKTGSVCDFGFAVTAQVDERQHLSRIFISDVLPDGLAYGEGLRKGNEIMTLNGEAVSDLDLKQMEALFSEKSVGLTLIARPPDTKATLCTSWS

GRIP2_3, Q9C0E4 = target: GRIP2_3, Q9C0E4
AHNAK1, Q09666 = target: AHNAK1, Q09666
DLG5_1, Q8TDM6 = target: DLG5_1, Q8TDM6
SNTG2, Q9NY99 = target: T8, SNTG2, Q9NY99
T8 sequence (Q9NY99 68-166, limits assumed, looked up): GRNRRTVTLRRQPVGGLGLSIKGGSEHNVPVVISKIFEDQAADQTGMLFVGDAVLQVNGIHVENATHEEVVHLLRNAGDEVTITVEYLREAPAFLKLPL

SCRIB_2, Q14160 = target: SCRIB_2, Q14160
NHERF4_1, Q86UT5-2 = target: NHERF4_1, Q86UT5-2
Inadl_2, Q8NI35 = target: Inadl_2, Q8NI35
DFNB31_2, Q9P202 = target: T9, DFNB31_2, Q9P202
T9 sequence (Q9P202 274-371, limits assumed, looked up): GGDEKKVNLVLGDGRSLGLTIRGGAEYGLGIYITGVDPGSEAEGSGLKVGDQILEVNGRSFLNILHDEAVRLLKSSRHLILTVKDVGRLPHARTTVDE

Inadl_3, Q8NI35 = target: Inadl_3, Q8NI35
GORASP2, Q9H8Y8 = target: GORASP2, Q9H8Y8
DLG2_3, Q15700 = target: DLG2_3, Q15700
[1] = plain residues with an end cap or a label only (N-terminal biotin on a linker: ado-ado)
[2] = plain residues with an end cap or a label only (N-terminal biotin on a linker: ahx)

NHERF4_1, Q86UT5-2, sequence (Q86UT5 other isoform, or with tags, fused parts or gaps): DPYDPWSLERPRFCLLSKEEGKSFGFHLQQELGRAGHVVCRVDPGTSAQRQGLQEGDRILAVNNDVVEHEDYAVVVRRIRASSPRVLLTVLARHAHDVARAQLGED
TJP1_3, Q07157, sequence (Q07157 416-512): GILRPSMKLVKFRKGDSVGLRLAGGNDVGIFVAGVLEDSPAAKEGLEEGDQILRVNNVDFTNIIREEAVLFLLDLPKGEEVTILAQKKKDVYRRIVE
GRIP2_5, Q9C0E4, sequence (Q9C0E4 544-642): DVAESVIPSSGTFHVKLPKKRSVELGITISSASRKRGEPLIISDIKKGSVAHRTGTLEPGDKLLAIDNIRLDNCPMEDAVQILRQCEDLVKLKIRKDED
PICK1, Q9NRD5, sequence (Q9NRD5 17-115): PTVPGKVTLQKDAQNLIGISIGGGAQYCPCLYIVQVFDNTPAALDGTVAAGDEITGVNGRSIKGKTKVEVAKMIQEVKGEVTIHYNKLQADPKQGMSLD
Inadl_2, Q8NI35, sequence (Q8NI35 238-335): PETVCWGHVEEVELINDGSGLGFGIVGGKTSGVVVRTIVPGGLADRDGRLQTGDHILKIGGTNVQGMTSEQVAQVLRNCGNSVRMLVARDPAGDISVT
GRIP2_3, Q9C0E4, sequence (Q9C0E4 238-339): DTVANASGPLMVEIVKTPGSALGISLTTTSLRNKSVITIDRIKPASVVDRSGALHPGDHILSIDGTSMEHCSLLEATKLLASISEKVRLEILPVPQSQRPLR
DLG4_3, P78352, sequence (P78352 306-403): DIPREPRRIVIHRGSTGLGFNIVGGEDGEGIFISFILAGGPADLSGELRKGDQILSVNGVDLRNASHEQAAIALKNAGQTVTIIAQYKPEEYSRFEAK
IL16_3, Q14005, sequence (Q14005 1107-1207): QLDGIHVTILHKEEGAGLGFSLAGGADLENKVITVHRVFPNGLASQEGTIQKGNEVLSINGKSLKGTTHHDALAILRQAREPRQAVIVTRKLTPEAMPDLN
AHNAK1, Q09666, sequence (Q09666 4-100): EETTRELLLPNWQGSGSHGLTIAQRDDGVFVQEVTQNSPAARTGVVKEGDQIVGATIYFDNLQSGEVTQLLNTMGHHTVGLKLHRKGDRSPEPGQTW
Inadl_3, Q8NI35, sequence (Q8NI35 359-469): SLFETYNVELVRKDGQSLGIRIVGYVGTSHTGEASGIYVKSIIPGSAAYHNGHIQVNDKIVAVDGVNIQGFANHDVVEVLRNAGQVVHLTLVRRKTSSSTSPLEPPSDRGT
DLG5_1, Q8TDM6, sequence (Q8TDM6 617-713): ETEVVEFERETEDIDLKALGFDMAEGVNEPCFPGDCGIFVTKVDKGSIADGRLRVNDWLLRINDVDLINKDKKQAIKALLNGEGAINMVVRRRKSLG
DLG1_2, Q12959, sequence (Q12959 314-412): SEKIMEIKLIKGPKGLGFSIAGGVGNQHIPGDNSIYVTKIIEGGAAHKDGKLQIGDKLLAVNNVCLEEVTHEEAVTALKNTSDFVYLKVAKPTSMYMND
GRID2IP_2, A4D2P6, sequence (A4D2P6 272-370): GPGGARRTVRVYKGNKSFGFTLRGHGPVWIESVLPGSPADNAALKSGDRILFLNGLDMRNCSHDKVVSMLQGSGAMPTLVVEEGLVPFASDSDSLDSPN
ARHGEF12, Q9NZN5-2, sequence (Q9NZN5 other isoform, or with tags, fused parts or gaps): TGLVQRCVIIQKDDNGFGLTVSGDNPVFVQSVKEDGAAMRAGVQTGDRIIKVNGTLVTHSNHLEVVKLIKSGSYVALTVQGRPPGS
DLG4_2, P78352, sequence (P78352 155-259): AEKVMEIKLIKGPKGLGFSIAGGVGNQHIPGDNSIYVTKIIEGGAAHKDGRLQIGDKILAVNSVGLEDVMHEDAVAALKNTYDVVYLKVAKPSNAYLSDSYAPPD
SCRIB_2, Q14160, sequence (Q14160 857-960): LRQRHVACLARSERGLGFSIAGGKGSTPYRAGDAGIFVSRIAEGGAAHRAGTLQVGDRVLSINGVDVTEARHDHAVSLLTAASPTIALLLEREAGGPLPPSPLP

Binder: SQDPKKPSRV [CBY2, Q8NA61]
- pKd (NHERF3_1, Q5T2W1; [1]): below the threshold
- pKd (SHANK1, Q9Y566; [1]): below the threshold
- pKd (GRID2IP_2, A4D2P6; [1]): below the threshold
- pKd (TJP1_3, Q07157; [1]): below the threshold
- pKd (MPDZ_5, O75970; [1]): below the threshold
- pKd (SNTA1, Q13424; [1]): 3.48
- pKd (APBA1_1, Q02410; [1]): below the threshold
- pKd (DLG4_3, P78352; [1]): below the threshold
- pKd (DLG4_2, P78352; [1]): 3.49
- pKd (GOPC, Q9HD26; [1]): 3.75
- pKd (SNX27, Q96L92; [1]): 3.67
- pKd (PARD3B_1, Q8TEW8; [1]): below the threshold
- pKd (GRIP2_5, Q9C0E4; [1]): below the threshold
- pKd (DLG1_2, Q12959; [1]): below the threshold
- pKd (IL16_3, Q14005; [1]): below the threshold
- pKd (PICK1, Q9NRD5; [1]): 4.21
- pKd (ARHGEF12, Q9NZN5-2; [1]): below the threshold
- pKd (TIAM2, Q8IVF5; [1]): below the threshold
- pKd (GRIP2_3, Q9C0E4; [1]): below the threshold
- pKd (AHNAK1, Q09666; [1]): below the threshold
- pKd (DLG5_1, Q8TDM6; [1]): below the threshold
- pKd (SNTG2, Q9NY99; [1]): below the threshold
- pKd (SCRIB_2, Q14160; [1]): below the threshold
- pKd (NHERF4_1, Q86UT5-2; [1]): below the threshold
- pKd (Inadl_2, Q8NI35; [1]): below the threshold
- pKd (DFNB31_2, Q9P202; [1]): below the threshold
- pKd (Inadl_3, Q8NI35; [1]): below the threshold
- pKd (GORASP2, Q9H8Y8; [1]): below the threshold
- pKd (DLG2_3, Q15700; [1]): below the threshold

Binder: HSATSVHTSV [MTMR1, Q13613]
- pKd (NHERF3_1, Q5T2W1; [2]): below the threshold
- pKd (SHANK1, Q9Y566; [2]): below the threshold
- pKd (GRID2IP_2, A4D2P6; [2]): below the threshold
- pKd (TJP1_3, Q07157; [2]): below the threshold
- pKd (MPDZ_5, O75970; [2]): below the threshold
- pKd (SNTA1, Q13424; [2]): 3.65
- pKd (APBA1_1, Q02410; [2]): below the threshold
- pKd (DLG4_3, P78352; [2]): below the threshold
- pKd (DLG4_2, P78352; [2]): 4.7
- pKd (GOPC, Q9HD26; [2]): 3.75
- pKd (SNX27, Q96L92; [2]): 3.96
- pKd (PARD3B_1, Q8TEW8; [2]): below the threshold
- pKd (GRIP2_5, Q9C0E4; [2]): below the threshold
- pKd (DLG1_2, Q12959; [2]): 4.9
- pKd (IL16_3, Q14005; [2]): below the threshold
- pKd (PICK1, Q9NRD5; [2]): below the threshold
- pKd (ARHGEF12, Q9NZN5-2; [2]): below the threshold
- pKd (TIAM2, Q8IVF5; [2]): below the threshold
- pKd (GRIP2_3, Q9C0E4; [2]): below the threshold
- pKd (AHNAK1, Q09666; [2]): below the threshold
- pKd (DLG5_1, Q8TDM6; [2]): below the threshold
- pKd (SNTG2, Q9NY99; [2]): 3.5
- pKd (SCRIB_2, Q14160; [2]): 3.95
- pKd (NHERF4_1, Q86UT5-2; [2]): below the threshold
- pKd (Inadl_2, Q8NI35; [2]): below the threshold
- pKd (DFNB31_2, Q9P202; [2]): below the threshold
- pKd (Inadl_3, Q8NI35; [2]): 3.7
- pKd (GORASP2, Q9H8Y8; [2]): below the threshold
- pKd (DLG2_3, Q15700; [2]): 4.44
